Results: article PMC6398391 (The FEBS journal, 2018)

Target: c-MYC:MAX bHLHZip heterodimer (MYC 352-437, MAX 22-102) (human, UniProt P01106-1 352-437; P61244 22-102)
Experiment: NMR titration; unlabeled MYC:MAX dimer titrated into 15N-labeled INI1 RPT1 (147 uM); 1H,15N HSQC; fast exchange; shifts fitted to a single-site binding curve; 25 °C
Conditions: both partners purified

Chain of c-MYC:MAX bHLHZip heterodimer (MYC 352-437, MAX 22-102) (P01106 367-452, chain 1 of 2): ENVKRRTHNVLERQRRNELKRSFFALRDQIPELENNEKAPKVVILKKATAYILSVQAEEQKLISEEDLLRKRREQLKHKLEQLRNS
Chain of c-MYC:MAX bHLHZip heterodimer (MYC 352-437, MAX 22-102) (P61244 22-102, chain 2 of 2): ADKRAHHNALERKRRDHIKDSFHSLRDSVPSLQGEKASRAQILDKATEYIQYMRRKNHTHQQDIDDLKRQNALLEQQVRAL

Kd: 44 ± 6 µM
B1: INI1/hSNF5 RPT1 (residues 184-258) (domain or fragment, human, UniProt Q12824 184-258, looked up)
chain: EVLVPIRLDMEIDGQKLRDAFTWNMNEKLMTPEMFSEILCDDLDLNPLTFVPAIASAIRQQIESYPTDSILEDQS
